B1: MOR04832 Fab (Fab, V domains shown)
VH: QVQLVQSGAEVKKPGSSVKVSCKASGGTFSSYAISWVRQAPGQGLEWMGNIYPIFGYANYAQKFQGRVTITADESTSTAYMELSSLRSEDTAVYYCARYGQYGQHFSHGGMDVWGQGTLVTVSS
VL: DIQMTQSPSSLSASVGDRVTITCRASQDISISLTWYQQKPGKAPKLLIYGAFSLQSGVPSRFSGSGSGTDFTLTISSLQPEDFATYYCQQYYGTSATFGQGTKVEIKR
notes: carries two C-terminal tags (FLAG and 6xHis)
B2: MOR04496 Fab (Fab, V domains shown)
VH: QVQLVESGGGLVQPGGSLRLSCAASGFTFSSYAISWVRQAPGKGLEWVSSISYSGSSTYYADSVKGRFTISRDNSKNTLYLQMNSLRAEDTAVYYCARMEYWYHLLYMDYWGQGTLVTVSS
VL: DIVLTQSPATLSLSPGERATLSCRASQSIGDNYLAWYQQKPGQAPRLLIYDANNRATGVPARFSGSGSGTDFTLTISSLEPEDFATYYCQQYDDHPLTFGQGTKVEIKR
notes: as for B1
B3: MOR04497 Fab (Fab, V domains shown)
VH: QVQLVESGGGLVQPGGSLRLSCAASGFTFSNHALSWVRQAPGKGLEWVSGIQYDGSNTGYADSVKGRFTISRDNSKNTLYLQMNSLRAEDTAVYYCARYYGYSYMDYWGQGTLVTVSS
VL: DIELTQPPSVSVAPGQTARISCSGDNLGSKYVHWYQQKPGQAPVLVIYADNNRPSGIPERFSGSNSGNTATLTISGTQAEDEADYYCQSYDHMLQVFGGGTKLTVLG
notes: as for B1
B4: MOR04494 Fab (Fab, V domains shown)
VH: QVQLVESGGGLVQPGGSLRLSCAASGFTFSSYYMSWVRQAPGKGLEWVSNISYDSSDTYYADSVKGRFTISRDNSKNTLYLQMNSLRAEDTAVYYCARQQYFDHIDIWGQGTLVTVSS
VL: DIELTQPPSVSVAPGQTARISCGGDSLGGKYVYWYQQKPGQAPVLVIYGDSKRPSGIPERFSGSNSGNTATLTISGTQAEDEADYYCQSYTNALSTVFGGGTKLTVLG
notes: as for B1
B5: MOR04493 Fab (Fab, V domains shown)
VH: QVQLVQSGAEVKKPGSSVKVSCKASGGTFSSYAISWVRQAPGQGLEWMGGIIPDFGWANYAQKFQGRVTITADESTSTAYMELSSLRSEDTAVYYCARSGMFYSILFDYWGQGTLVTVSS
VL: DIQMTQSPSSLSASVGDRVTITCRASQDIYNYLNWYQQKPGKAPKLLIYGASSLQSGVPSRFSGSGSGTDFTLTISSLQPEDFAVYYCQQQNDYPLTFGQGTKVEIKR
notes: as for B1

Molecular target: T1, recombinant human TSLP (R&D Systems) (human, UniProt Q969D9 29-159)
T1 construct: also called hTSLP; human thymic stromal lymphopoietin
Experiment: SPR (Biacore), biotinylated recombinant human TSLP on SA-chip, Fab as analyte
Method: A respective amount of biotinylated human serum albumin (HSA) was immobilized on the reference flow cell. […] The Fabs were applied in concentration series of 16-500 nM at a flow rate of 20 μl/min. Association phase was set to 60 s and dissociation phase to 120 s.

Binder | binding result
B1 | binds
B2 | binds
B3 | binds
B4 | binds
B5 | binds
